Results: the supplement of paper PMC10567573

B1: SNX3 (parent)
chain: FLRQLPFRGDDGIFDDNFIEERKQ

Variants of: B1
Assay: protein stability index of a GFP-peptide fusion (GPS, HEK-293T) (PSI 1-6); higher = more stable
Details: c terminus: a fixed tail appended
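Also: lentivirally expressed fusions sorted by FACS into six bins by GFP to DsRed ratio, PSI derived from sequencing read proportions per bin multiplied by bin number.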

Going from FLRQLPFMGDDGIFDDNFIEERKQ [R8M] to FLRQLPFSGDDGIFDDNFIEERKQ [R8S], the protein stability index rises from 3.1 to 3.61.

Going from FLRQLPFYGDDGIFDDNFIEERKQ [R8Y] to FLRQLPFWGDDGIFDDNFIEERKQ [R8W], the protein stability index falls from 3.96 to 3.08.

First: FLRQLPFHGDDGIFDDNFIEERKQ [R8H]
Second: FLRQLPFKGDDGIFDDNFIEERKQ [R8K]
The protein stability index of the first is higher: 3.96 for the first, 3.69 for the second.

Going from FLRQLPFFGDDGIFDDNFIEERKQ [R8F] to FLRQLPFLGDDGIFDDNFIEERKQ [R8L], the protein stability index rises from 2.44 to 2.95.

First: FLRQLPFAGDDGIFDDNFIEERKQ [R8A]
Second: FLRQLPFPGDDGIFDDNFIEERKQ [R8P]
The protein stability index of the first is lower: 3.15 for the first, 3.75 for the second.

First: FLRQLPFVGDDGIFDDNFIEERKQ [R8V]
Second: FLRQLPFGGDDGIFDDNFIEERKQ [R8G]
The protein stability index of the first is lower: 3.56 for the first, 3.79 for the second.

Compared with FLRQLPFCGDDGIFDDNFIEERKQ [R8C], FLRQLPFTGDDGIFDDNFIEERKQ [R8T] is higher in protein stability index: 2.33 for the first, 3.97 for the second.

First: FLRQLPFNGDDGIFDDNFIEERKQ [R8N]
Second: FLRQLPFEGDDGIFDDNFIEERKQ [R8E]
The protein stability index of the first is lower: 3.68 for the first, 3.94 for the second.

Going from FLRQLPFDGDDGIFDDNFIEERKQ [R8D] to FLRQLPFIGDDGIFDDNFIEERKQ [R8I], the protein stability index falls from 2.9 to 2.67.

Compared with FLRQLPFQGDDGIFDDNFIEERKQ [R8Q], FLRQLPFRGDDGIFDDAFIEERKQ [N17A] is lower in protein stability index: 4.22 for the first, 2.54 for the second.

First: FLRQLPFRGDDGIFDDCFIEERKQ [N17C]
Second: FLRQLPFRGDDGIFDDLFIEERKQ [N17L]
The protein stability index of the first is higher: 3.27 for the first, 2.28 for the second.

First: FLRQLPFRGDDGIFDDTFIEERKQ [N17T]
Second: FLRQLPFRGDDGIFDDGFIEERKQ [N17G]
The protein stability index of the first is lower: 3.22 for the first, 4.12 for the second.

Going from FLRQLPFRGDDGIFDDRFIEERKQ [N17R] to FLRQLPFRGDDGIFDDPFIEERKQ [N17P], the protein stability index rises from 2.61 to 3.23.

Compared with FLRQLPFRGDDGIFDDYFIEERKQ [N17Y], FLRQLPFRGDDGIFDDMFIEERKQ [N17M] is higher in protein stability index: 2.38 for the first, 2.79 for the second.

Going from FLRQLPFRGDDGIFDDKFIEERKQ [N17K] to FLRQLPFRGDDGIFDDEFIEERKQ [N17E], the protein stability index rises from 3.98 to 4.18.

Going from FLRQLPFRGDDGIFDDWFIEERKQ [N17W] to FLRQLPFRGDDGIFDDHFIEERKQ [N17H], the protein stability index rises from 1.94 to 3.41.

Compared with FLRQLPFRGDDGIFDDVFIEERKQ [N17V], FLRQLPFRGDDGIFDDQFIEERKQ [N17Q] is higher in protein stability index: 2.97 for the first, 3.71 for the second.

Compared with FLRQLPFRGDDGIFDDFFIEERKQ [N17F], FLRQLPFRGDDGIFDDDFIEERKQ [N17D] is higher in protein stability index: 2.58 for the first, 3.83 for the second.

First: FLRQLPFRGDDGIFDDIFIEERKQ [N17I]
Second: FLRQLPFRRDDGIFDDNFIEERKQ [G9R]
The protein stability index of the first is lower: 2.7 for the first, 3.27 for the second.

Going from FLRQLPFREDDGIFDDNFIEERKQ [G9E] to FLRQLPFRVDDGIFDDNFIEERKQ [G9V], the protein stability index falls from 3.17 to 3.08.

Going from FLRQLPFRCDDGIFDDNFIEERKQ [G9C] to FLRQLPFRYDDGIFDDNFIEERKQ [G9Y], the protein stability index falls from 2.79 to 2.53.

Going from FLRQLPFRTDDGIFDDNFIEERKQ [G9T] to FLRQLPFRHDDGIFDDNFIEERKQ [G9H], the protein stability index rises from 2.97 to 3.08.

Compared with FLRQLPFRLDDGIFDDNFIEERKQ [G9L], FLRQLPFRQDDGIFDDNFIEERKQ [G9Q] is lower in protein stability index: 2.99 for the first, 2.98 for the second.

Compared with FLRQLPFRDDDGIFDDNFIEERKQ [G9D], FLRQLPFRWDDGIFDDNFIEERKQ [G9W] is lower in protein stability index: 3.04 for the first, 3.02 for the second.

First: FLRQLPFRADDGIFDDNFIEERKQ [G9A]
Second: FLRQLPFRKDDGIFDDNFIEERKQ [G9K]
The protein stability index of the first is higher: 3.68 for the first, 3.39 for the second.

Compared with FLRQLPFRPDDGIFDDNFIEERKQ [G9P], FLRQLPFRIDDGIFDDNFIEERKQ [G9I] is lower in protein stability index: 3.06 for the first, 2.9 for the second.

Compared with FLRQLPFRFDDGIFDDNFIEERKQ [G9F], FLRQLPFRNDDGIFDDNFIEERKQ [G9N] is lower in protein stability index: 3.36 for the first, 2.72 for the second.

First: FLRQLPFRSDDGIFDDNFIEERKQ [G9S]
Second: FLRQLPFRGDDGIFTDNFIEERKQ [D15T]
The protein stability index of the first is lower: 3.41 for the first, 3.94 for the second.

Compared with FLRQLPFRGDDGIFMDNFIEERKQ [D15M], FLRQLPFRGDDGIFPDNFIEERKQ [D15P] is lower in protein stability index: 3.28 for the first, 3.04 for the second.

Going from FLRQLPFRGDDGIFWDNFIEERKQ [D15W] to FLRQLPFRGDDGIFEDNFIEERKQ [D15E], the protein stability index rises from 2.89 to 3.18.

Compared with FLRQLPFRGDDGIFLDNFIEERKQ [D15L], FLRQLPFRGDDGIFADNFIEERKQ [D15A] is higher in protein stability index: 3.28 for the first, 3.45 for the second.

Compared with FLRQLPFRGDDGIFGDNFIEERKQ [D15G], FLRQLPFRGDDGIFQDNFIEERKQ [D15Q] is lower in protein stability index: 3.12 for the first, 2.97 for the second.

Going from FLRQLPFRGDDGIFHDNFIEERKQ [D15H] to FLRQLPFRGDDGIFKDNFIEERKQ [D15K], the protein stability index falls from 3.06 to 2.96.

First: FLRQLPFRGDDGIFYDNFIEERKQ [D15Y]
Second: FLRQLPFRGDDGIFNDNFIEERKQ [D15N]
The protein stability index of the first is lower: 2.43 for the first, 2.75 for the second.

Going from FLRQLPFRGDDGIFVDNFIEERKQ [D15V] to FLRQLPFRGDDGIFCDNFIEERKQ [D15C], the protein stability index rises from 2.65 to 2.99.

Compared with FLRQLPFRGDDGIFRDNFIEERKQ [D15R], FLRQLPFRGDDGIFFDNFIEERKQ [D15F] is higher in protein stability index: 2.71 for the first, 2.74 for the second.

First: FLRQLPFRGDDGIFSDNFIEERKQ [D15S]
Second: FLRQLPFRGDDGIFIDNFIEERKQ [D15I]
The protein stability index of the first is higher: 3.15 for the first, 2.53 for the second.

Compared with FLRQLPFRGNDGIFDDNFIEERKQ [D10N], FLRQLPFRGKDGIFDDNFIEERKQ [D10K] is higher in protein stability index: 2.64 for the first, 3.41 for the second.

Compared with FLRQLPFRGWDGIFDDNFIEERKQ [D10W], FLRQLPFRGADGIFDDNFIEERKQ [D10A] is higher in protein stability index: 2.35 for the first, 3.12 for the second.

Going from FLRQLPFRGHDGIFDDNFIEERKQ [D10H] to FLRQLPFRGYDGIFDDNFIEERKQ [D10Y], the protein stability index falls from 3.65 to 1.9.

Compared with FLRQLPFRGCDGIFDDNFIEERKQ [D10C], FLRQLPFRGVDGIFDDNFIEERKQ [D10V] is higher in protein stability index: 3.52 for the first, 3.72 for the second.

Compared with FLRQLPFRGPDGIFDDNFIEERKQ [D10P], FLRQLPFRGLDGIFDDNFIEERKQ [D10L] is lower in protein stability index: 3.42 for the first, 2.42 for the second.

Going from FLRQLPFRGFDGIFDDNFIEERKQ [D10F] to FLRQLPFRGQDGIFDDNFIEERKQ [D10Q], the protein stability index rises from 2.62 to 3.56.

Compared with FLRQLPFRGRDGIFDDNFIEERKQ [D10R], FLRQLPFRGIDGIFDDNFIEERKQ [D10I] is lower in protein stability index: 3.27 for the first, 2.03 for the second.

Compared with FLRQLPFRGMDGIFDDNFIEERKQ [D10M], FLRQLPFRGGDGIFDDNFIEERKQ [D10G] is lower in protein stability index: 3.41 for the first, 2.76 for the second.

Compared with FLRQLPFRGSDGIFDDNFIEERKQ [D10S], FLRQLPFRGEDGIFDDNFIEERKQ [D10E] is lower in protein stability index: 3.35 for the first, 3.33 for the second.

Compared with FLRQLPFRGTDGIFDDNFIEERKQ [D10T], FLRQLPYRGDDGIFDDNFIEERKQ [F7Y] is lower in protein stability index: 3.2 for the first, 3.07 for the second.
